Here are results for two molecules from PMC2566858 (Nucleic Acids Research, 2008).

What all share (test): fluorescence anisotropy
For orientation: Polarisation of emitted light reports the rotation of a fluorescent probe.

Series [1] deals with T1, rGyr_hel K106Q (Thermotoga maritima, UniProt O51934 59-541, K106Q).
T1 sequence: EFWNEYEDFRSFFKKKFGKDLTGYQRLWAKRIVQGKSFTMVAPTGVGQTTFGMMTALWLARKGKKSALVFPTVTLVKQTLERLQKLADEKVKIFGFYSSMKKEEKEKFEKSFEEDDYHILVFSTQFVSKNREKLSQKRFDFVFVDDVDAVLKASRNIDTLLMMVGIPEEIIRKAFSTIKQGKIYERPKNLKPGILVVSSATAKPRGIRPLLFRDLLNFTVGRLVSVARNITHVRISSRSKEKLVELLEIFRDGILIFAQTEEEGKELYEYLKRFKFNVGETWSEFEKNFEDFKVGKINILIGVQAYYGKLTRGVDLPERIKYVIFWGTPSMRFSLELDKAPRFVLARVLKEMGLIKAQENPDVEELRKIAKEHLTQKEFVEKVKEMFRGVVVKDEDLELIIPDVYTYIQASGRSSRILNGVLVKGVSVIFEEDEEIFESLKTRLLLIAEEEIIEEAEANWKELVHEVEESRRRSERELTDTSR

Series [2] addresses T2, rGyr_fl Y851F (full-length reverse gyrase) (Thermotoga maritima, UniProt O51934 1-1104, Y851F).
T2 sequence: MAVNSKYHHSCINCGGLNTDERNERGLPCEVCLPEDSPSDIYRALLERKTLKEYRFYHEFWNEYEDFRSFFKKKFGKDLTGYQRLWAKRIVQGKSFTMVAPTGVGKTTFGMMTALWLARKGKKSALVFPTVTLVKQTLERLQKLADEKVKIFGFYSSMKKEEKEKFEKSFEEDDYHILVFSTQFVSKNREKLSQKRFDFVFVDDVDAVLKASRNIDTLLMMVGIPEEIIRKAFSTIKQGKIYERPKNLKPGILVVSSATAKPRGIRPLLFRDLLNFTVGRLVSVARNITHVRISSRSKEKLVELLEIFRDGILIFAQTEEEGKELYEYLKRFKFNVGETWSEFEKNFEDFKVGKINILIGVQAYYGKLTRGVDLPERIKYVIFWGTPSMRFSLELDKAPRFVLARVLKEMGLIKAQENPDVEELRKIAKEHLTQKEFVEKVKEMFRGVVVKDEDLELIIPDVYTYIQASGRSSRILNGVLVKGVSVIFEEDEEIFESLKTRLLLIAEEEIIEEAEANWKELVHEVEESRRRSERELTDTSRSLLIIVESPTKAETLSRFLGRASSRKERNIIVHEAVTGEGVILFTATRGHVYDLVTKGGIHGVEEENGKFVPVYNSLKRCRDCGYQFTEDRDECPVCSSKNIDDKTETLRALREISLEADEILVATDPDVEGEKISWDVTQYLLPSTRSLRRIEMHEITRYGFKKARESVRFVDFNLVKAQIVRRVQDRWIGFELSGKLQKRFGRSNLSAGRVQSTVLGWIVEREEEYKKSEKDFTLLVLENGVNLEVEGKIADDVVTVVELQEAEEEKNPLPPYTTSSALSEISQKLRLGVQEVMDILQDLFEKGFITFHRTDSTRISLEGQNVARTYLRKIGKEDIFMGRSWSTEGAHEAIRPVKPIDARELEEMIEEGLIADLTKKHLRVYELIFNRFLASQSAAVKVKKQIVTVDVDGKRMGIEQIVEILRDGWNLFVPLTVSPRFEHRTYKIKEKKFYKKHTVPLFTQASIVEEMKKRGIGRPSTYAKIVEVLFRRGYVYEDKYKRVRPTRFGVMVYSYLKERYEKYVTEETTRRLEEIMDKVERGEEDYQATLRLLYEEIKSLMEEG

The target in series [3] is T2, rGyr_fl Y851F (full-length reverse …). The source holds these as a separate data set.
In series [4] the target is T3, rGyr_hel (reverse gyrase helicase-like domain) (Thermotoga maritima, UniProt O51934 59-541).
T3 sequence: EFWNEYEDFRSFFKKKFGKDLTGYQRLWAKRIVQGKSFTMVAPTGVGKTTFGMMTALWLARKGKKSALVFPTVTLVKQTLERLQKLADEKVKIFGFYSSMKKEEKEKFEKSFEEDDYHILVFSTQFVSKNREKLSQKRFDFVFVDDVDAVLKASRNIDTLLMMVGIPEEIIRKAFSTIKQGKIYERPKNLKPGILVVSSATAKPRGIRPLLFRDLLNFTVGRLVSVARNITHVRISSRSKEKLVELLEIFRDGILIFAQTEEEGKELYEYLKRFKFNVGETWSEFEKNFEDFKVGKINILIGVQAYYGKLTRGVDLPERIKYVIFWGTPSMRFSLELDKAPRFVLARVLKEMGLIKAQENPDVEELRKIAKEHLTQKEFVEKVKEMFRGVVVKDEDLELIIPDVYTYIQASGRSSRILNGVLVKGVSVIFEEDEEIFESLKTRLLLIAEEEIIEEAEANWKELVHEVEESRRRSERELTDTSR

Series [5] addresses T1, rGyr_hel K106Q. This is another data set of the same source.
Series [6] addresses T2, rGyr_fl Y851F (full-length reverse …). This is another data set of the same source.

Where two headings read alike, the source gives them in different places.

B1: 60-base ssDNA (ssDNA)
DNA: AAGCCAAGCTTCTAGAGTCAGCCCGTGATATTCATTACTTCTTATCCTAGGATCCCCGTT
Take B1: the equilibrium dissociation constant (Kd) in series [1] is 250 ± 30 nM; in series [2] it was 60 ± 15 nM; in series [3] it was 41 ± 9 nM; in series [4] it was 1200 ± 200 nM; in series [5], 180 ± 30 nM; in series [6], 35 ± 5 nM.

B2: 60 bp dsDNA (dsDNA)
DNA 1: AAGCCAAGCTTCTAGAGTCAGCCCGTGATATTCATTACTTCTTATCCTAGGATCCCCGTT
DNA 2: AACGGGGATCCTAGGATAAGAAGTAATGAATATCACGGGCTGACTCTAGAAGCTTGGCTT
Turning to B2, the Kd in series [1] is 2900 ± 600 nM; in series [2], 250 ± 40 nM; in series [3], 330 ± 70 nM; in series [4], 1000 ± 100 nM; in series [5], 3800 ± 600 nM; in series [6], 490 ± 60 nM.

Broadly, the Kd is the equilibrium constant for the complex coming apart. Higher therefore signals a looser complex.
